In US20230406951A1 (Pfizer, published 2023):

Target: T1, human TNFR2 (human, UniProt P20333 23-461)
T1 construct: expressed on the surface of CHO cells; also called HuTNFR2; TNFRSF1B
T1 sequence: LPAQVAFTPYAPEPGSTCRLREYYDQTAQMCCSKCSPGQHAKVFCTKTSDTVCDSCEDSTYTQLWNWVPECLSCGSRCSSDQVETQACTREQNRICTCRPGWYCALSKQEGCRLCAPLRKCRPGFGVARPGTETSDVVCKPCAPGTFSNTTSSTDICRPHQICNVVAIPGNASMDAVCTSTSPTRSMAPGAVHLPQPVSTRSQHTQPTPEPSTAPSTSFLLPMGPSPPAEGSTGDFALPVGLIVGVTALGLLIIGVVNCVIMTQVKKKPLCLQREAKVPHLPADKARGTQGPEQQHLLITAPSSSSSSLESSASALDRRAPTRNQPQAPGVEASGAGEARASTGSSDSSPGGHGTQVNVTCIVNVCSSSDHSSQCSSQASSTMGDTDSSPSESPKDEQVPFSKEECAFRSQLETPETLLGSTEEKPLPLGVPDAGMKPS
Experiment: binding to human TNFR2 CHO cells

Binder | binding result
IgG 1945 (antibody, name in Kabat numbering, V domains shown, IgG) VH: QVQLVQSGAEVKKPGASVKVSCKVSGFSFPSSGVDWVRQAPGQGLEWLGVTRGEGSTHYNQKFQGRVTITKDTSKSTVYMELSSLRSEDTAVYYCASGEWDEGFVYWGQGTLVTVSS VL: DIQLTQSPSFLSASVGDRVTITCKASQNVGTAVAWYQQKPGKAPKLLIYAASTLQSGVPSRFSGSGSGTEFTLTISSLQPEDFATYYCLQYSSYPLTFGGGTKVEIKR | no binding
IgG 1908 (antibody, name in Kabat numbering, V domains shown, IgG) VH: QVQLVQSGAEVKKPGASVKVSCKVSGFSFPSSGVDWVRQAPGQGLEWLGVTKGQGSTHYNQKFQGRVTITKDTSKSTVYMELSSLRSEDTAVYYCASGEWDEGFVYWGQGTLVTVSS VL: DIQLTQSPSFLSASVGDRVTITCKASQNVGTAVAWYQQKPGKAPKLLIYAASTLQSGVPSRFSGSGSGTEFTLTISSLQPEDFATYYCQQYSSYPLTFGGGTKVEIKR | no binding
IgG 1909 (antibody, name in Kabat numbering, V domains shown, IgG) VH: QVQLVQSGAEVKKPGASVKVSCKVSGFSFPSSGVDWVRQAPGQGLEWLGVTRGEGSTHYNQKFQGRVTITKDTSKSTVYMELSSLRSEDTAVYYCASGEWDEGFVYWGQGTLVTVSS VL: DIQLTQSPSFLSASVGDRVTITCKASQNVGTAVAWYQQKPGKAPKLLIYAASTLQSGVPSRFSGSGSGTEFTLTISSLQPEDFATYYCQQYSSYPLTFGGGTKVEIKR | no binding
IgG 1910 (antibody, name in Kabat numbering, V domains shown, IgG) VH: QVQLVQSGAEVKKPGASVKVSCKVSGFSFPSSGVDWVRQAPGQGLEWLGVTFQEGSTHYNQKFQGRVTITKDTSKSTVYMELSSLRSEDTAVYYCASGEWDEGFVYWGQGTLVTVSS VL: DIQLTQSPSFLSASVGDRVTITCKASQNVGTAVAWYQQKPGKAPKLLIYAASTLQSGVPSRFSGSGSGTEFTLTISSLQPEDFATYYCQQYSSYPLTFGGGTKVEIKR | no binding
IgG 1911 (antibody, name in Kabat numbering, V domains shown, IgG) VH: QVQLVQSGAEVKKPGASVKVSCKVSGFSFPSSGVDWVRQAPGQGLEWLGVTLGHGSTHYNQKFQGRVTITKDTSKSTVYMELSSLRSEDTAVYYCASGEWDEGFVYWGQGTLVTVSS VL: DIQLTQSPSFLSASVGDRVTITCKASQNVGTAVAWYQQKPGKAPKLLIYAASTLQSGVPSRFSGSGSGTEFTLTISSLQPEDFATYYCQQYSSYPLTFGGGTKVEIKR | no binding
IgG 1912 (antibody, name in Kabat numbering, V domains shown, IgG) VH: QVQLVQSGAEVKKPGASVKVSCKVSGFSFPSSGVDWVRQAPGQGLEWLGVTHGSGSTHYNQKFQGRVTITKDTSKSTVYMELSSLRSEDTAVYYCASGEWDEGFVYWGQGTLVTVSS VL: DIQLTQSPSFLSASVGDRVTITCKASQNVGTAVAWYQQKPGKAPKLLIYAASTLQSGVPSRFSGSGSGTEFTLTISSLQPEDFATYYCQQYSSYPLTFGGGTKVEIKR | no binding
IgG 1913 (antibody, name in Kabat numbering, V domains shown, IgG) VH: QVQLVQSGAEVKKPGASVKVSCKVSGFSFPSSGVDWVRQAPGQGLEWLGVTWGVGSTHYNQKFQGRVTITKDTSKSTVYMELSSLRSEDTAVYYCASGESTEGFVYWGQGTLVTVSS VL: DIQLTQSPSFLSASVGDRVTITCKASQNVGTAVAWYQQKPGKAPKLLIYAASTLQSGVPSRFSGSGSGTEFTLTISSLQPEDFATYYCQQYSSYPLTFGGGTKVEIKR | no binding
IgG 1914 (antibody, name in Kabat numbering, V domains shown, IgG) VH: QVQLVQSGAEVKKPGASVKVSCKVSGFSFPSSGVDWVRQAPGQGLEWLGVTWGVGSTHYNQKFQGRVTITKDTSKSTVYMELSSLRSEDTAVYYCASGEHDEGFVYWGQGTLVTVSS VL: DIQLTQSPSFLSASVGDRVTITCKASQNVGTAVAWYQQKPGKAPKLLIYAASTLQSGVPSRFSGSGSGTEFTLTISSLQPEDFATYYCQQYSSYPLTFGGGTKVEIKR | no binding
IgG 1915 (antibody, name in Kabat numbering, V domains shown, IgG) VH: QVQLVQSGAEVKKPGASVKVSCKVSGFSFPSSGVDWVRQAPGQGLEWLGVTWGVGSTHYNQKFQGRVTITKDTSKSTVYMELSSLRSEDTAVYYCASGERDEGFVYWGQGTLVTVSS VL: DIQLTQSPSFLSASVGDRVTITCKASQNVGTAVAWYQQKPGKAPKLLIYAASTLQSGVPSRFSGSGSGTEFTLTISSLQPEDFATYYCQQYSSYPLTFGGGTKVEIKR | no binding
IgG 1916 (antibody, name in Kabat numbering, V domains shown, IgG) VH: QVQLVQSGAEVKKPGASVKVSCKVSGFSFPSSGVDWVRQAPGQGLEWLGVTWGVGSTHYNQKFQGRVTITKDTSKSTVYMELSSLRSEDTAVYYCASGEQDEGFVYWGQGTLVTVSS VL: DIQLTQSPSFLSASVGDRVTITCKASQNVGTAVAWYQQKPGKAPKLLIYAASTLQSGVPSRFSGSGSGTEFTLTISSLQPEDFATYYCQQYSSYPLTFGGGTKVEIKR | no binding
IgG 1936 (antibody, name in Kabat numbering, V domains shown, IgG) VH: QVQLVQSGAEVKKPGASVKVSCKVSGFSFPSSGVDWVRQAPGQGLEWLGVTRGEGSTHYNQKFQGRVTITKDTSKSTVYMELSSLRSEDTAVYYCASGEWDEGFVYWGQGTLVTVSS VL: DIQLTQSPSFLSASVGDRVTITCKASQNVGTAVAWYQQKPGKAPKLLIYAASTLQSGVPSRFSGSGSGTEFTLTISSLQPEDFATYYCLQKSSYPLTFGGGTKVEIKR | no binding
IgG 1937 (antibody, name in Kabat numbering, V domains shown, IgG) VH: QVQLVQSGAEVKKPGASVKVSCKVSGFSFPSSGVDWVRQAPGQGLEWLGVTFQEGSTHYNQKFQGRVTITKDTSKSTVYMELSSLRSEDTAVYYCASGEWDEGFVYWGQGTLVTVSS VL: DIQLTQSPSFLSASVGDRVTITCKASQNVGTAVAWYQQKPGKAPKLLIYAASTLQSGVPSRFSGSGSGTEFTLTISSLQPEDFATYYCLQKSSYPLTFGGGTKVEIKR | no binding
IgG 1938 (antibody, name in Kabat numbering, V domains shown, IgG) VH: QVQLVQSGAEVKKPGASVKVSCKVSGFSFPSSGVDWVRQAPGQGLEWLGVTLGHGSTHYNQKFQGRVTITKDTSKSTVYMELSSLRSEDTAVYYCASGEWDEGFVYWGQGTLVTVSS VL: DIQLTQSPSFLSASVGDRVTITCKASQNVGTAVAWYQQKPGKAPKLLIYAASTLQSGVPSRFSGSGSGTEFTLTISSLQPEDFATYYCLQKSSYPLTFGGGTKVEIKR | no binding
IgG 1940 (antibody, name in Kabat numbering, V domains shown, IgG) VH: QVQLVQSGAEVKKPGASVKVSCKVSGFSFPSSGVDWVRQAPGQGLEWLGVTWGVGSTHYNQKFQGRVTITKDTSKSTVYMELSSLRSEDTAVYYCASGESTEGFVYWGQGTLVTVSS VL: DIQLTQSPSFLSASVGDRVTITCKASQNVGTAVAWYQQKPGKAPKLLIYAASTLQSGVPSRFSGSGSGTEFTLTISSLQPEDFATYYCLQKSSYPLTFGGGTKVEIKR | no binding
IgG 1941 (antibody, name in Kabat numbering, V domains shown, IgG) VH: QVQLVQSGAEVKKPGASVKVSCKVSGFSFPSSGVDWVRQAPGQGLEWLGVTWGVGSTHYNQKFQGRVTITKDTSKSTVYMELSSLRSEDTAVYYCASGEHDEGFVYWGQGTLVTVSS VL: DIQLTQSPSFLSASVGDRVTITCKASQNVGTAVAWYQQKPGKAPKLLIYAASTLQSGVPSRFSGSGSGTEFTLTISSLQPEDFATYYCLQKSSYPLTFGGGTKVEIKR | no binding
